US20160347802A1
One block for each substance: values may come before it.

Tests used:
[1] = target: Islr2, AVEXIS protein; assay: method not stated; the filers' own unpublished determination ('in preparation'), used to calibrate the AVEXIS screen
[2] = target: human Netrin-G1, AVEXIS protein (human) (UniProt Q9Y2I2); assay: AVEXIS, prey on bait NTNG1; white = No binding
[3] = target: human Netrin-4, AVEXIS protein (human) (UniProt Q9HB63); assay: AVEXIS, prey on bait NTN4; white = No binding
[4] = target: human DRAXIN 21 amino acid Netrin binding fragment, AVEXIS prey or bait protein (human); assay: AVEXIS, prey on bait DRAXIN 21aa; white = No binding
[5] = target: human Netrin1, recombinant AVEXIS protein (biotinylated when immobilised) (human) (UniProt O95631); assay: AVEXIS, prey on bait NTN1; dark = Binding
[6] = target: human DRAXIN, AVEXIS prey or bait protein (human) (UniProt Q8NBI3); assay: AVEXIS, prey on bait DRAXIN; white = No binding
[7] = target: biotinylated recombinant human UNC5B (human) (UniProt Q8IZJ1); assay: AVEXIS, prey on bait UNC5B; white = No binding
[8] = target: human Netrin-3, AVEXIS protein (human) (UniProt O00634); assay: AVEXIS, prey on bait NTN3; white = No binding
[9] = target: human Netrin-G2, AVEXIS protein (human) (UniProt Q96CW9); assay: AVEXIS, prey on bait NTNG2; white = No binding
[10] = target: Matn4 ECD, mono-biotinylated bait protein (positive control); assay: AVEXIS, prey on bait Matn4 (+), positive control for the prey; dark = Binding
[11] = target: biotinylated recombinant human DCC (human) (UniProt P43146); assay: AVEXIS, prey on bait DCC; white = No binding
[12] = target: zebrafish Netrin1a, AVEXIS bait or prey protein (zebrafish); assay: AVEXIS, prey on bait zNetrin1a, upper value; grey = Weak binding
[13] = target: zebrafish Netrin1a, AVEXIS bait or prey protein (zebrafish); assay: AVEXIS, prey on bait zNetrin1a, lower value; grey = Weak binding
[14] = target: zebrafish Netrin1a, AVEXIS bait or prey protein (zebrafish); assay: AVEXIS, prey on bait zNetrin1a, lower value; white = No binding
[15] = target: zebrafish DraxinA, AVEXIS prey or bait protein (zebrafish) (UniProt Q4V9H3); assay: AVEXIS, prey on bait zDraxinA, lower value; black = Binding
[16] = target: human Netrin1, recombinant AVEXIS protein (biotinylated when immobilised) (human) (UniProt O95631); assay: AVEXIS, prey on bait hNETRIN1, lower value; white = No binding
[17] = target: human DRAXIN, AVEXIS prey or bait protein (human) (UniProt Q8NBI3); assay: AVEXIS, prey on bait hDRAXIN, lower value; black = Binding
[18] = target: zebrafish DraxinB, AVEXIS protein (zebrafish); assay: AVEXIS, prey on bait zDraxinB, upper value; black = Binding
[19] = target: zebrafish Netrin1a, AVEXIS bait or prey protein (zebrafish); assay: AVEXIS, prey on bait zNetrin1a, upper value; white = No binding
[20] = target: zebrafish DraxinA, AVEXIS prey or bait protein (zebrafish) (UniProt Q4V9H3); assay: AVEXIS, prey on bait zDraxinA, upper value; black = Binding
[21] = target: zebrafish DraxinB, AVEXIS protein (zebrafish); assay: AVEXIS, prey on bait zDraxinB, lower value; black = Binding
[22] = target: human DRAXIN, AVEXIS prey or bait protein (human) (UniProt Q8NBI3); assay: AVEXIS, prey on bait hDRAXIN, upper value; black = Binding
[23] = target: human Netrin1, recombinant AVEXIS protein (biotinylated when immobilised) (human) (UniProt O95631); assay: AVEXIS, prey on bait hNETRIN1, upper value; white = No binding

Chain of human DRAXIN, AVEXIS prey or bait protein (human) (Q8NBI3 26-349): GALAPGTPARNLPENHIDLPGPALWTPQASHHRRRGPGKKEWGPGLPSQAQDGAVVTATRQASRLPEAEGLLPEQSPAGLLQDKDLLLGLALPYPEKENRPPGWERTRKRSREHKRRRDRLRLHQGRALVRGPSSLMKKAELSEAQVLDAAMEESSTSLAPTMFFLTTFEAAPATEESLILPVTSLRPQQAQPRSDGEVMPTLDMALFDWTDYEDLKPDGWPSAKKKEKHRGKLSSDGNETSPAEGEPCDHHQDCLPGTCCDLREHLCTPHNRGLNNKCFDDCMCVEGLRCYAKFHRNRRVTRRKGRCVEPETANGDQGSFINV
Chain of zebrafish DraxinA, AVEXIS prey or bait protein (zebrafish) (Q4V9H3 other isoform, or with tags, fused parts or gaps): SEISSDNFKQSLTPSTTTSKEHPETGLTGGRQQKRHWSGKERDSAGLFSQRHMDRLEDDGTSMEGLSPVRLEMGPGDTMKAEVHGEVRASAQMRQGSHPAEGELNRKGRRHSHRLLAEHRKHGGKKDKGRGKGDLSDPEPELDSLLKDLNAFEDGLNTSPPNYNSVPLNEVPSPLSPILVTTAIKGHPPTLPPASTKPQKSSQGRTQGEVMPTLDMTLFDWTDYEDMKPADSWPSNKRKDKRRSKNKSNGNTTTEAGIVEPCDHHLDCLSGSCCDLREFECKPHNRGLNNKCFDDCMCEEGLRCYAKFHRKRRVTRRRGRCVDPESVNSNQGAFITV
Chain of human DRAXIN 21 amino acid Netrin binding fragment, AVEXIS prey or bait protein (human) (peptide, as listed by the source): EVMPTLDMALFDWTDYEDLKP
Chain of human Netrin-G1, AVEXIS protein (human) (Q9Y2I2 29-510): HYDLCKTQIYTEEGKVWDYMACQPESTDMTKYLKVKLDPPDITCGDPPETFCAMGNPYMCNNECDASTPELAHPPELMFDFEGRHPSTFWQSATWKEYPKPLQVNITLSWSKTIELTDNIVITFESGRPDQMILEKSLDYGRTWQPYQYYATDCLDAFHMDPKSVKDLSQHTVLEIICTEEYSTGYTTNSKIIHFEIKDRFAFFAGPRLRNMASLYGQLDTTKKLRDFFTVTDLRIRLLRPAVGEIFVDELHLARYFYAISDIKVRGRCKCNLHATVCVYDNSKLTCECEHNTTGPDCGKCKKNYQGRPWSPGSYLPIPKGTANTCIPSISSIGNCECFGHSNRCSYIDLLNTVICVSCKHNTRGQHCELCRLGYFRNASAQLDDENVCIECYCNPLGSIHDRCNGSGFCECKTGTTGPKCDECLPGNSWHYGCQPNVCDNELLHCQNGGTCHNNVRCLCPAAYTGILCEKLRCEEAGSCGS
Chain of human Netrin-G2, AVEXIS protein (human) (Q96CW9 18-507): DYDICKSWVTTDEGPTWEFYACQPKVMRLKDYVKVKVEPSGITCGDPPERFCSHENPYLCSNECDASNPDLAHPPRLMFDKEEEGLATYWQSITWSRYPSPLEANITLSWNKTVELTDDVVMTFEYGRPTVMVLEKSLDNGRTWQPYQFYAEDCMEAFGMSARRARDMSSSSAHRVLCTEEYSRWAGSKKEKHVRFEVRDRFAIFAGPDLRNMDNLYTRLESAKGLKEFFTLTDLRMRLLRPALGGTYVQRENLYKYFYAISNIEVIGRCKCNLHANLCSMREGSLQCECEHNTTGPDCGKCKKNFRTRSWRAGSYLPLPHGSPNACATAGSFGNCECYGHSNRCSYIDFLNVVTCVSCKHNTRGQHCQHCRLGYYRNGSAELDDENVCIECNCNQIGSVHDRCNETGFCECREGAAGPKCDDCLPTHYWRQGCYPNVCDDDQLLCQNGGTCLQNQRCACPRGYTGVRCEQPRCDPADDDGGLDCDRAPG
Chain of human Netrin-3, AVEXIS protein, O00634 28-580 (ligand; other documents disagree on this pair) (O00634 28-580): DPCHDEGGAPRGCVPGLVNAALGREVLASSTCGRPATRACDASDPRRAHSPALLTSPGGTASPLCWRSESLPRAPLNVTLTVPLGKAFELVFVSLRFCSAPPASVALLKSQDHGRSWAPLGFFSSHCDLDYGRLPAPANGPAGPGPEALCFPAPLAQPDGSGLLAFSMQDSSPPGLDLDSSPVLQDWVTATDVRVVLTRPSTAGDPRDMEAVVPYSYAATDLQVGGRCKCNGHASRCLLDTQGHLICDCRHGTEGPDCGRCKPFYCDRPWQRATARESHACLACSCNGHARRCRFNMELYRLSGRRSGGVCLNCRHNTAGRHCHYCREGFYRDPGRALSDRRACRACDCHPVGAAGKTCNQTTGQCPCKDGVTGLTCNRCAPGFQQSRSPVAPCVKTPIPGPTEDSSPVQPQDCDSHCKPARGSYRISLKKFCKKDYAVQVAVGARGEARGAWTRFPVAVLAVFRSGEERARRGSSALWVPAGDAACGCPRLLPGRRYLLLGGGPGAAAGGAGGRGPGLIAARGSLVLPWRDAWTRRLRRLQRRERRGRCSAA
Chain of human Netrin-3, AVEXIS protein (human) (O00634 28-580): as above
Chain of human Netrin-4, AVEXIS protein (human) (Q9HB63 19-628): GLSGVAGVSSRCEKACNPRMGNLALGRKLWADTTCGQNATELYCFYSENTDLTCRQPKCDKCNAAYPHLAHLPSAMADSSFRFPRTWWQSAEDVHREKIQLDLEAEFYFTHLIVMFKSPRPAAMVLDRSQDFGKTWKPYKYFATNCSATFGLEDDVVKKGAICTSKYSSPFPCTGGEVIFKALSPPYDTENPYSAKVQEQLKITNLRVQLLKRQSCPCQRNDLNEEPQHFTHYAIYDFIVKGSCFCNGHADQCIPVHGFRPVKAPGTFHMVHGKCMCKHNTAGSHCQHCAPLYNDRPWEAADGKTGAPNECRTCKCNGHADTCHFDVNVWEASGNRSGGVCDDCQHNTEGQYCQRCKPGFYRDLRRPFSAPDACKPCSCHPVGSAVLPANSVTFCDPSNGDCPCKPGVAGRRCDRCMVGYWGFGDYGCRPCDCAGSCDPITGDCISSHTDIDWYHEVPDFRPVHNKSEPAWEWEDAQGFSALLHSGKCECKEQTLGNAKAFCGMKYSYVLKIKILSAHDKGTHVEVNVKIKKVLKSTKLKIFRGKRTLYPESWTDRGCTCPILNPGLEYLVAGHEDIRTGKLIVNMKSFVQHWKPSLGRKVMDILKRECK

Substance: biotinylated recombinant human DCC (from UniProt P43146 26-1097) (receptor)
A486nm [2]: 0.065
A486nm [3]: 0.064
A486nm [4]: 0.062
A486nm [5]: 0.377
A486nm [6]: 0.064
A486nm [7]: 0.062
A486nm [8]: 0.076
A486nm [9]: 0.061
A486nm [10]: 0.278
A486nm [11]: 0.065

Substance: biotinylated recombinant human UNC5B (from UniProt Q8IZJ1 27-377) (receptor)
A486nm [11]: 0.064

Substance: human Netrin-3, AVEXIS protein (from UniProt O00634 28-580) (ligand)
A486nm [11]: 0.067

Substance: human Netrin-3, AVEXIS protein, O00634 28-580 (ligand; other documents disagree on this pair)
A486nm [7]: 0.066

Next, values leading:

Kd [1]: 12 µM
half-life (t½) [1]: 0.16 s
Substance: Vasn (Slit-like2), AVEXIS protein

A486nm [12]: 0.103
A486nm [13]: 0.084
Substance: zebrafish DraxinB, AVEXIS protein (ligand)

A486nm [14]: 0.063
A486nm [15]: 0.276
A486nm [16]: 0.059
A486nm [17]: 0.249
A486nm [18]: 0.235
A486nm [19]: 0.064
A486nm [20]: 0.323
A486nm [21]: 0.174
A486nm [22]: 0.136
A486nm [23]: 0.064
Substance: zebrafish Netrin1a, AVEXIS bait or prey protein (ligand)
